From PMC5020537, “A lack of peptide binding and decreased thermostability suggests that the CASKIN2 scaffolding protein SH3 domain may be vestigial” (BMC Structural Biology, 2016)
“And” between values parts separate entries of the source, which are not always exact repeats. Equal values may be shown once.

What was measured:
[1] = molecular target: T1, CASKIN2 SH3 domain SH3-6x mutant (K290Y, H296E, A300E, R319W, Y336L, I341F) (human, UniProt Q8WXE0 284-348, K290Y | H296E | A300E | R319W | Y336L | I341F); experiment: other fluorescence titration; peptide titrated into 1 μM SH3 domain; 10 mM Tris-HCl, pH 7.5, 150 mM NaCl, 0.05 % sodium azide; intrinsic tryptophan fluorescence, excitation 280 nm, emission 340 nm; fitted to a 1:1 protein to peptide complex; details: both partners purified
T1 construct: Made by Quikchange from the wild type construct; PDB 2KE9 is the wild type parent; also called 6x CASKIN-SH3 domain mutant
T1 sequence (Q8WXE0 284-348 K290Y/H296E/A300E/R319W/Y336L/I341F): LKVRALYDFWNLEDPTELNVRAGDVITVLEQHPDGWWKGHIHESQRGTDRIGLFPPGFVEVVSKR

[2] = molecular target: T2, human CASKIN2 SH3 domain (aa. 284-348), wild type (human, UniProt Q8WXE0 284-348); experiment: as above; details: both partners purified
T2 construct: CASKIN2, human, SH3 domain, residues 284-348, UniProt Q8WXE0; Cloned into BamHI/XhoI of pGEX4T2; Isotopically labelled (15N and/or 13C) for NMR; also called wild type CASKIN2 SH3 domain; WT
T2 sequence (Q8WXE0 284-348): as the sequence (Q8WXE0 284-348 K290Y/H296E/A300E/R319W/Y336L/I341F) above, with Y7K, E13H, E17A, W36R, L53Y, F58I counted along it

B1: UBPY peptide YTPMVRENKPP (peptide)
peptide: YTPMVRENKPP
notes: peptide derived from the protein UBPY, corresponding to the UBPY ligand in the STAM2 SH3 domain structure PDB 1UJ0; contains an RxxKP motif; also called Class-III UBPY peptide; STAM2 ligand; source: synthetic peptide (Canpeptide, Montreal; > 90 % purity)
Kd [1]: 460 nM and 220 nM
Kd [2]: 39000 ± 6000 nM
